Measured values reported in patent publication US20260070994A1 (PASSION TECHNOLOGY ZHUHAI PARTNERSHIP LIMITED PARTNERSHIP, published 2026).
Where two headings read alike, the source gives them in different places.

T1: CD25 on the CHO-CD25-overexpressing cell line (human, UniProt P01589 22-272)
T1 chain: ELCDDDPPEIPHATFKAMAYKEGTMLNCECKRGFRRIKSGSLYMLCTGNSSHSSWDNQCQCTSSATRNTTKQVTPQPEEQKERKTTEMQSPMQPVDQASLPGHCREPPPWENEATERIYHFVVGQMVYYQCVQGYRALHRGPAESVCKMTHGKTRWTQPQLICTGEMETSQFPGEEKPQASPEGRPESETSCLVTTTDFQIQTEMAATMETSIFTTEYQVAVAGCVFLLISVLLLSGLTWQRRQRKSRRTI

T2: CD25-His recombinant protein (human, UniProt P01589 22-240)
T2 chain: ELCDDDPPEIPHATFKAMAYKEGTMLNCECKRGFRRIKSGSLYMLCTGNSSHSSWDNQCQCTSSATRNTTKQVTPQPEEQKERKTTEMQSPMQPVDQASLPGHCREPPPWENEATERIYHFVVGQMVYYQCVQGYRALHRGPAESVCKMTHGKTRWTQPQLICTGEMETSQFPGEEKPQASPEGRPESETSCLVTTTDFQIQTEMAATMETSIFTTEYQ

T3: CD25-His recombinant protein (human, UniProt P01589 22-240, limits assumed)
T3 construct: Recombinant antigen made by the applicant; also called CD25-His antigen; CD25 antigen; not shown: His tag
T3 sequence (looked up): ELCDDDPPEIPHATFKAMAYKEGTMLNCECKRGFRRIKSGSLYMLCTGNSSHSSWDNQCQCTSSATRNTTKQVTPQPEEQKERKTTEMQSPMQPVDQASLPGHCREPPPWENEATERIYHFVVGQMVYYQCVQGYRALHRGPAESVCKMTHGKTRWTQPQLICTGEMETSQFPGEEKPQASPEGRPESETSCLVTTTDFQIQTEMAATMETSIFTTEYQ

T4: CD25 on the CHO-CD25-overexpressing cell line (human, UniProt P01589 22-272)
T4 sequence (looked up): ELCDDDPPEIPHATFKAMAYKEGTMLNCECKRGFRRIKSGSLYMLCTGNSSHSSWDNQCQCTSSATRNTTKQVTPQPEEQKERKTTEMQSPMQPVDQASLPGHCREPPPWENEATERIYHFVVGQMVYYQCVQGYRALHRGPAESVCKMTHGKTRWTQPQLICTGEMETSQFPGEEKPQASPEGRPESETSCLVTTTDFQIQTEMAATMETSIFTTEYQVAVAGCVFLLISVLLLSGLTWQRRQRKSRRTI


What was measured:
[1] = target: T1, CD25 on the CHO-CD25-overexpressing …; experiment: FACS
[2] = target: T2, CD25-His recombinant protein; experiment: ELISA
[3] = target: T3, CD25-His recombinant protein; experiment: ELISA on CD25 antigen, transfection supernatant 5 µL
Protocol: The CD25-His protein was coated on a 96-well microplate. After the candidate antibodies were transiently transfected into 293F cells for 48 hours, the supernatant was collected and ELISA detection was performed.

[4] = target: T4, CD25 on the CHO-CD25-overexpressing …; experiment: cell-based or functional assay
[5] = target: T2, CD25-His recombinant protein; experiment: BLI
[6] = target: T1, CD25 on the CHO-CD25-overexpressing …; experiment: FACS
[7] = target: T3, CD25-His recombinant protein; experiment: ELISA on human CD25 antigen, antibody 10 µg/ml
[8] = target: T3, CD25-His recombinant protein; experiment: ELISA on human CD25 antigen, antibody 0.016 µg/ml

Row | Binder | EC50 [1] | EC50 [2] | also measured
1 | E08 (VHH) VHH: AVQLVESGGGLVQPGGSLRLSCAASGFTFSSYPMGWYRQAPGEECELVAGITSAGGSTNYADSVKGRFTISRDNAKNTVYLQMNSLKPEDTAVYYCNTDPRYYTDSRGPCSWGQGTQVTVSS | 1.14 µg/mL | 0.00875 µg/mL | 
2 | A11 (VHH) VHH: DVQLVESGGGLVQPGGSLRLSCAASGFTFSSYAMSWYRQAPGKERELVAYITTSPGYTTYTDSVKGRFTISRDNAKNTVYLQMNSLKPDDTAVYYCNAWRGAPRGDYWGQGTQVTVSS | 2.8 µg/mL | 0.0128 µg/mL | 
3 | A05 (VHH) VHH: QVQLVESGGGLAQPGGSLRLSCAASGFTFSIYAMSWARQAPGKGLEWVSGIYSDSSYTYYADSVKGRFTISRDNAKNTLYLQMNSLKPEDTALYYCLKARGSGSYYPFDDYRGQGTQVTVSS | 1.59 µg/mL | 0.0177 µg/mL | 
4 | B04 (VHH) VHH: QVQLVESGGGLVQPGGSLRLSCATSGFTLDYYAIGWFRQAPGKEREGVSCISSSDGTTAYADSVKGRFTISTDNARNTVYLQMNSLKPEDTAVYYCAADLGYYCADNVRYAGSLYDYWGQGTQVTVSS | 7.02 µg/mL | 0.164 µg/mL | 
5 | B10 (VHH, Tested as transfection supernatant) VHH: EVQLVESGGGLVQPGGSLRLSCAVFGVTLDSYAIGWFRQAPGKEREGVSCISTSDGRTWETDAVLGRFTISRDNAKNTVYLQMNDLKPEDTAVYYCGADGRDWCSAHVYSRYEYDYSGQGTQVTVSS |  |  | ELISA OD [3]: 4.38
6 | A07-HM5 (VHH) VHH: EVQLVESGGGLVQPGGSLRLSCAVSGFTLDYYAIGWFRQAPGKGLEGVSCISGSDGRTAYADSVKGRFTISKDNAKNTVYLQMNSLRAEDTAVYYCAADPGYYCAGEVRYAGSLYDYWGQGTLVTVSS |  |  | ADCC EC50 [4]: 0.0074 µg/mL; Kd [5]: 9.62 nM; EC50 [6]: 0.632 µg/mL
7 | clone A07 (VHH, Recombinant antibody from a eukaryotic expression vector (293F); also called A-A7; A-A07-VHH) VHH: EVQLVESGGGLAQPGGSLRLSCAVSGFTLDYYAIGWFRQAPGKEREGVSCISGSDGRTAYTDSVKGRFTISKDNAKNTVYLQMNSLKPEDTAVYYCAADPGYYCAGEVRYAGSLYDYWGQGTQVTVSS | 2.8 µg/mL | 0.0559 µg/mL | ADCC EC50 [4]: 0.0186 µg/mL; Kd [5]: 6.67 nM; EC50 [6]: 0.399 µg/mL; ELISA OD [7]: 4.39; ELISA OD [8]: 0.2
8 | A07-HM6 (VHH) VHH: EVQLLESGGGLVQPGGSLRLSCAVSGFTLDYYAIGWFRQAPGKGLEGVSCISGSDGRTAYGDSVKGRFTISKDNAKNTVYLQMNSLRAEDTAVYYCAADPGYYCAGEVRYAGSLYDYWGQGTLVTVSS |  |  | ADCC EC50 [4]: 0.0047 µg/mL; Kd [5]: 14.6 nM; EC50 [6]: 0.772 µg/mL
9 | D04 (VHH) VHH: QVQLVESGGGLVQPGGSLRLSCAASGFTFSSSAVSWARLTPGKRLEWVSAIASDGSTYYADSMQGRFTISRDNAKNTVYLQMNSLKPEDTAVYYCAIPRDGLVPVFGIDYWGQGTQVTVSS |  | 0.0281 µg/mL | 
10 | D01 (VHH) VHH: QVQLVESGGGLAQPGGSLRLSCAASGFTFSNFAVSWARQVAGEGFEWVSGVYSDGDTYYADSVKDRFIISRDNAKNTLYLQMNSLKPEDTALYYCGAARGRLCSSIMTCDYWGQGTQVTVSS | 1.27 µg/mL | 0.0261 µg/mL | 
11 | G10 (VHH) VHH: DVQLVESGGGLAQPGGSLRLSCAASGFTFSNYAMNWLRQAPGKGLEWVSGIYSDSSGTYYADSVKGRFTISRDNAKNTLYLQMNSLKPEDTALYYCAKASNSGSYYPWDDDWGQGTQVTVSA | 1.88 µg/mL | 0.0193 µg/mL | 
